In patent US9073976B2, “ND2 peptides and methods of treating neurological disease” (NoNO Inc., priority 2010, dated 2015):

How the values were obtained:
[1] = molecular target: T1, NMDAR signaling complex in cultured hippocampal neurons (Rattus norvegicus, UniProt P11662+Q9WUD9); test: Co-immunoprecipitation from cultured hippocampal neurons; format: cell-based; details: IP anti-NR2B; 1 uM for 1 hour or 3 uM for 2 hours
T1 construct: endogenous in cells; host or cells: primary hippocampal neurons from E17/E18 Wistar rats, 14 DIV
Method: We next examined the effect of Tat-ND2 310-321 and Src40-49-Tat on the association of proteins in the NMDAR signaling complex in cultured hippocampal neurons at 14DIV. Neurons were treated with Tat-ND2 310-321 or Src40-49 at 1 uM for 1 hour (FIG. 13A) or at 3 uM for 2 hours (FIG. 13B). Cell lysates were purified and immunoprecipitated with anti-NR2B (left) and then stained with anti NR2B, anti-PSD95, anti-Src and anti-ND2 antibodies.
NMDAR and its associated proteins were prepared from cultured hippocampal (HP) neurons or rat brains. For in vitro competition experiments, two week HP neurons were collected after treatment with Src 40-49-Tat, Tat-ND2 310-321 or Tat peptides for 1 h at luM concentration or for 2 hours at 3 uM concentration then cells were quickly harvested and homogenized.
Lysates were incubated with Dynabeads protein G (Invitrogen) and selected antibodies for 30 minutes at room temperature. Isolated immunoprecipitates were resolved using SDS-PAGE and transferred to nitrocellulose membranes. The membranes were probed with selected detection antibodies, then stripped and reprobed with other detection antibodies.

ND2 310-321 = molecular target: T2, ND2 310-321 (Homo sapiens, UniProt P03891); test: Dot blot of Src fragments probed with biotinylated ND2 310-321; format: binding; details: FIG. 5A
T2 construct: 7; NVKMKWQFEHTK
Method: Src40-49-Tat indicate a fusion peptide in which the human HIV-1 tat protein transduction domain [[…]] […] (SEQ ID NO:10). […] The peptides were plated at a concentration of ˜5 uM.

rats subjected to 3PVO = test: Three pial vessel occlusion (3PVO) model of stroke, infarct volume; format: in vivo, rat; details: 3 nmol/g intravenous one hour post-surgery; 24 hours after surgery; n=10
Method: The efficacy of ND2 inhibitors in the treatment of stroke was examined using the three pial vessel occlusion (3PVO) model of stroke. This is a permanent model of stroke that creates small but consistent infarcts at 24 hours.
Male Sprague Dawley rats (n=10 in each group) were surgically subjected to permanent occlusion of the pial vessels. One hour post-surgery, animals were given an intravenous injection of Saline, Tat-NR2B9c (Aarts et al, Science, 2002), Src 40-49-Tat or Tat-ND2 310-321 and allowed to further recover in their cages. 24 hours after surgery, brains were harvested, sliced and incubated with TTC to visualize the areas of infarction. The infarct volume of each animal was determined, as well as the average volumes for each group of ten.
Both peptides were myristoylated via an amide bond to the alpha-amino group of the N-terminal amino acid of the peptide.
Male Sprague Dawley rats (n=10 in each group) weighing between 230 and 290 g were used for this study. Experiments were performed on fasted rats (Free overnight access to water but not food). For permanent three pial vessel occlusion (3PVO) was performed as described previously (Forder J et al., 2005, supra). In brief, rats were anesthetized with a 0.5 ml/kg intramuscular injection of ketamine (100 mg/kg), acepromazine (2 mg/kg), and xylazine (5 mg/kg), supplemented with one-third of the initial dose as required. An anal temperature probe was inserted, and the animal was placed on a heating pad maintained at 37° C. The skull was exposed via a midline incision and scraped free of tissue. Using a dissecting microscope and a pneumatic dental drill, a 6- to 8-mm cranial window was made over the right somatosensory cortex (2 mm caudal and 5 mm lateral to bregma) by drilling a rectangle through the skull and lifting off the piece of skull while keeping the dura intact. The 3 pial arteriolar middle cerebral artery branches around the barrel cortex were selected and electrically cauterized through the dura. After the cauterizations, the scalp was sutured. […]

[2] = molecular target: T3, ND2, Src, NMDAR subunits, and PSD95 in hippocampal neurons (Rattus norvegicus, UniProt P11662+Q9WUD9); test: Immunocytochemistry colocalization in 14DIV hippocampal neurons; format: cell-based; details: 1 uM peptide for 1 h, day 14 neurons
T3 construct: endogenous in cells; host or cells: primary hippocampal neurons from E17/E18 Wistar rats, 14 DIV
Method: A series of experiments was performed to examine the localization of ND2, Src, NMDAR subunits, and PSD95 in hippocampal neurons by immunocytochemistry in the presence of Tat, Tat-ND2 310-321, or Src 40-49-Tat. Briefly, hippocampal neurons were isolated from embryonic day #17/E18 Wistar rats, and cultured in neurobasal media containing coverslips with B27 and glutamax. Cells were then treated for 1 hr with luM peptide before fixing by standard methods. Proteins were visualized using specific antibodies and secondary antibodies coupled to fluorescent molecules. Colocalization of fluorescence was calculated by merging the images in Photoshop and calculating the % colocalized between pairs as the total colocalized fluorescence clusters divided by the total number of clusters (e.g., % colocalized ND2 with Src=(total colocalized)/(total ND2 clusters); % colocalized Src with ND2=(total colocalized)/(total Src clusters)).
Hippocampal neurons cultured on coverslips were treated with 1 uM of Src 40-49-Tat, Tat-ND2 310-321 or Tat for 1 h at the day 14. Then neurons were incubated in 4% paraformaldehyde and 4% sucrose in phosphate-buffered saline (PBS) for 10 minutes followed by 5 minutes […] at room temperature (RT). Cells were permeabilized with 0.25% Triton X-100 in PBS for 5 minutes and by treatment with 5% donkey serum in PBS for 30 minutes at RT. The cultures were incubated with a mixture of the primary antibodies, raised in various species, in 0.25% Triton X-100 PBS for 2 hours at RT, washed, and incubated for 1 hour at RT with a mixture of species-specific secondary antibodies all raised in donkey and conjugated to either Texas Red, or FITC fluorophores (1:200 dilution in 0.25% Triton X-100 PBS). The coverslips were washed with PBS and mounted using ProLong Gold antifade reagent (Invitrogen). Images were collected using a 60× pan-fluor objective on a Nikon Eclipse TE 200 microscope. The images were analyzed with PhotoShop 7 (Adobe, San Jose, Calif.). Brightness and contrast were adjusted, sharpened using the unsharpen mask tool, and the images were merged for color colocalization.
For quantification of the colocalization, the maximum intensities of the fluorophore channels were normalized and the background fluorescence of each channel seen in the dendrites was subtracted, the color images were merged. Two clusters in two different channels were considered colocalizing when at least 66% of the surface of one clusters in one of the two channels overlapped with a clusters in the other channel. For each combination of antibodies, three independent immunofluorescence experiments were done. Each measurement was taken from a 50-m-long dendritic segment (with an average width of 2 m). Colocalization was expressed as the percent of the total clusters analyzed.

[3] = molecular target: T4, NMDA Receptor complex in rat brains subjected to 3PVO (Rattus norvegicus, UniProt P11662+Q9WUD9); test: Co-immunoprecipitation from rat brains subjected to 3PVO stroke; format: in vivo; details: injection 1 hour post-surgery, harvest 2 hours post-surgery; compared with Tat-ND2 310-321
T4 construct: from tissue; host or cells: rat brain cortex (ipsilateral and contralateral hemispheres) after 3PVO ischemia
Method: The status of these proteins was next examined in rat brains that had been subjected to a 3PVO stroke. After 3PVO ischemia, rodents were given either Tat-ND2 310-321 or saline via tail vein injection. At one hour post-surgery, the brains were quickly harvested and lysed. Following IP with anti NR2B antibodies, the membranes were incubated with anti phosphotyrosine antibodies, developed, and subsequently probed with anti Src, phosphorylated Src (pTys) and anti PSD95 antibodies. As an internal control, both the ipsilateral and contralateral hemispheres (I and C, respectively) were prepared.
A second set of experiments was performed on animals subjected to 3PVO, modified such that the saline, Src 40-49-Tat or Tat-ND2 310-321 was administered by tail vein injection 1 hour post-surgery and the brains were harvested and lysed 2 hours post-surgery.
For in vivo experiments, one hour after 3PVO ischemia, rats were injected with indicated peptides or saline by intravenous tail vein. Two hours after surgery (one hour after administration of compounds), the selected cortex of the brain was quickly harvested and homogenized.
Lysates were incubated with Dynabeads protein G (Invitrogen) and selected antibodies for 30 minutes at room temperature. Isolated immunoprecipitates were resolved using SDS-PAGE and transferred to nitrocellulose membranes. […]

[4] = tested on: Formalin, CFA and peripheral nerve constriction pain models; details: Liu et al. 2008; cited from earlier work
[5] = molecular target: T5, binding of biotinylated Src40-49 to Tat-ND2 310-321 (Homo sapiens, UniProt P03891); test: Competition ELISA, binding of biotinylated Src40-49 to pre-coated Tat-ND2 310-321; details: FIG. 5E
T5 construct: 10; Tat-ND2 310-321; […]
Method: Competition ELISAs were also performed. […] In a similar manner, ND2 constructs bearing amino acid sequences from the 300-321 region are able to act as inhibitors of the interaction between ND2 and Src.

NMDA currents = details: Liu et al. 2008; cited from earlier work
[6] = tested on: association of Src and ND2; details: Liu et al. 2008; cited from earlier work

T5 sequence (P03891 other isoform, or with tags, fused parts or gaps): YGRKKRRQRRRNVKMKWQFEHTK

KPASADGHRGYGRKKRRQRRR [Src 40-49-Tat]
association of NR2B with Src [1]: reduces the association of NR2B with Src | binding of biotinylated ND2 310-321 (dot blot) (ND2 310-321): bound ND2 310-321 | reducing infarct volumes (statistical effect) (rats subjected to 3PVO): not statistically effective | association (colocalization) between ND2 and NR2B [2]: do not significantly affect | colocalization between PSD95 and NR2B [2]: similarly disrupted | colocalization of ND2 with PSD95 [2]: reduces the colocalization of ND2 with PSD95 | colocalization of Src and ND2 [2]: able to reduce the amount of colocalization of Src and ND2 | colocalization between NR2B and Src ([2]; FIG. 10): able to reduce the colocalization | colocalization between PSD95 and Src ([2]; FIG. 11): able to reduce the colocalization | uncoupling PSD95 and Src from the NMDA Receptor [3]: not nearly as effective | effect on inflammatory and neuropathic pain [4]: beneficial effect | inhibition of binding of biotinylated Src40-49 to Tat-ND2 310-321 (competition ELISA) [5]: inhibited | NMDA currents (NMDA currents): reduced NMDA currents | association of Src and ND2 in neuronal lysates [6]: disrupt the association of Src and ND2 in neuronal lysates
